According to PMC8924275, “A peroxisomal heterodimeric enzyme is involved in benzaldehyde synthesis in plants” (Nature Communications, 2022):
Blank lines part the entries; values can stand above or below the molecule they belong to.

Experiments:
AtBS = biological target: T1, AtBS (Arabidopsis thaliana, UniProt F4JFB8+Q9SG99); test: HPLC-DAD detection of benzaldehyde, Michaelis-Menten fit; type: biochemical; settings: 4 mM NADPH; 50 mM Bis-Tris pH 6.5; 28 °C; α:β 1:1
T1 construct: gene SDRD; CDS of both subunits from flower cDNA in pMAL-c5X (MBP-tagged), E. coli; amylose resin after 1:1 mixing; heterodimer
T1 sequence (F4JFB8 1-280): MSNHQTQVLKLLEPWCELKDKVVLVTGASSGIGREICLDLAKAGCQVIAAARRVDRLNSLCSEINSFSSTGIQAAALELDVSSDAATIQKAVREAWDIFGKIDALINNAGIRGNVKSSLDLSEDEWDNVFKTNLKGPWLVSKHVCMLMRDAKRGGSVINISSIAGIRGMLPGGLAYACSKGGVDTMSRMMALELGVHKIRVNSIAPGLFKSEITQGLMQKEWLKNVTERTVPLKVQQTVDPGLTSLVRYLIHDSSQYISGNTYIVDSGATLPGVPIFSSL
T1 sequence (Q9SG99 1-266): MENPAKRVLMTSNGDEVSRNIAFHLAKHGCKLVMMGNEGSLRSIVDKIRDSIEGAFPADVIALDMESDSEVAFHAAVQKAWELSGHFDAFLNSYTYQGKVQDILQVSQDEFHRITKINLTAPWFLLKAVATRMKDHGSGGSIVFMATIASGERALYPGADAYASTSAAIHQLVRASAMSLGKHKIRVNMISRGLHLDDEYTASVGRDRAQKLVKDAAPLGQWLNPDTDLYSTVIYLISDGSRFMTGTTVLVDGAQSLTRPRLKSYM
Source text: HPLC-DAD detection of benzaldehyde, Michaelis-Menten fit on AtBS

[1] = test system: CC(C)(COP(=O)(O)OP(=O)(O)OC[C@H]1O[C@@H](n2cnc3c(N)ncnc32)[C@H](O)[C@@H]1OP(=O)(O)O)[C@@H](O)C(=O)NCCC(=O)NCCSC(=O)c1ccccc1; test: purified protein; settings: 4 mM NADPH, 50 mM Bis-Tris pH 6.5, 28 °C, α:β 1:1
Source text: HPLC-DAD detection of benzaldehyde, Michaelis-Menten fit on PdBS

[2] = biological target: purified recombinant Arabidopsis thaliana benzaldehyde synthase β subunit (AtBSβ) (Arabidopsis thaliana); test: SEC; purified recombinant proteins at ~1 mg/mL on Superdex 200 Increase 10/300 GL in phosphate-buffered saline
[3] = biological target: purified recombinant tomato (Solanum lycopersicum) benzaldehyde synthase α subunit (SlBSα) (Solanum lycopersicum (tomato))
[4] = biological target: purified recombinant PhBSβ (from pMAL-c5X, MBP tag) (Petunia hybrida); test: SEC; purified recombinant proteins at ~1 mg/mL on Superdex 200 Increase 10/300 GL in phosphate-buffered saline
[5] = biological target: purified recombinant Arabidopsis thaliana benzaldehyde synthase α subunit (AtBSα) (Arabidopsis thaliana)

apparent BS activity of the cross-species hybrid SlBSα-PhBSβ compared with SlBS (fold lower than SlBS) [3]: 6.5
stoichiometry N [4]: 4
Molecule: purified recombinant PhBSβ (from pMAL-c5X, MBP tag) (natural protein)

apparent BS activity of the cross-species hybrid AtBSα-PdBSβ relative to AtBS (fold higher than AtBS) [5]: 7.8
apparent BS activity of the cross-species hybrid SlBSα-PdBSβ compared with SlBS (fold higher than SlBS) [3]: 2.7
Molecule: purified recombinant almond (Prunus dulcis) benzaldehyde synthase β subunit (PdBSβ) (natural protein)

apparent BS activity of the cross-species hybrid AtBSα-SlBSβ relative to AtBS (fold higher than AtBS) [5]: 4.6
Molecule: purified recombinant tomato (Solanum lycopersicum) benzaldehyde synthase β subunit (SlBSβ) (natural protein)

The next lines start with the molecule.

Molecule: CC(C)(COP(=O)(O)OP(=O)(O)OC[C@H]1O[C@@H](n2cnc3c(N)ncnc32)[C@H](O)[C@@H]1OP(=O)(O)O)[C@@H](O)C(=O)NCCC(=O)NCCSC(=O)c1ccccc1 [benzoyl-CoA]
Km (AtBS): 243 ± 28.2 µM

Molecule: PdBS (Prunus dulcis)
Km [1]: 629.4 ± 67.7 µM
Vmax [1]: 2.12 µmol/min/mg
kcat [1]: 5.26 ± 0.2 s⁻¹
kcat/Km [1]: 8400 ± 1000 M⁻¹ s⁻¹

Molecule: purified recombinant Arabidopsis thaliana benzaldehyde synthase β subunit (AtBSβ) (natural protein)
stoichiometry N [2]: 4
